The chains are these.
B1: 1A11 VHH-Fc (Fc fusion)
chain: QVQLVESGGGLVQAGGSLRLSCEVSGSIYSINSMGWYRQAPGKQRELVAGIVSDGRINYADSVKGRFTISRAKNTVYLQMNSLKPEDTAVYYCAADRAFVYAGDYDYLGQGTQVTVSS
B2: 7A9 VHH-Fc (Fc fusion)
chain: QVQLVESGGGLVQAGGSLRLSCSASGGTASRSAMGWFRQAPGKEREFVAGISRRNSGSTYVADSYEDSVKGRFTISRDNAKNTIYLQMNSLKPEDTAVYYCAAEPTLGWYVPRRSVEYEYWGQGTQVTVSS
B3: 1E4 VHH-Fc (Fc fusion)
chain: QVLLVESGGGLVQAGGLLRLACSASGRTFTENVMGWFRQAPGKEREFVAAINWNTGSTYYSDSRKGRFTISKDNAKNTMFLQINNLKPEDTAVYYCGGTSSSYYYIGEFIPDYWGQGTQVTVSS
B4: 19E10 VHH-Fc (Fc fusion)
chain: QVQLVESGGGLVQPGGSLRLSCVASGSTISINSMGWYRQAPGKAREMVATITNDGPIKYADPVKGRFTISRDNPKNTVYLQMNSLKPEDTAVYYCVADRAYWLAGEWEYWGQGTQVTVSS
B5: 3D4 VHH-Fc (Fc fusion)
chain: QVQLVESGGGLVQPGGSLRLSCAASGFTLDLNSIGWFRQAPGKEREGVSCISPSGSRMHYADSVKGRFTISRDNAKNTVYLQMNSLKPEDTAVYYCATGSPSYHYCSMYGLEYDSWGQGTQVTVPS
B6: 19C10 VHH-Fc (Fc fusion)
chain: B5 chain with G55A, R57S, M58T, S100T, S115D, P125S
B7: 5A6 VHH-Fc (Fc fusion)
chain: QVQLVESGGGLAQAGGSLRLSCATSGLTFSMSAMGWFRQAPGNEREFVGVINWNGGSSRYADSVRGRFTISRDNAKNTVYLQMNSLKPEDTGVYYCAADALNIGTGEVNPRLYDYWGQGTQVMVSS
B8: 9B2 VHH-Fc (Fc fusion)
chain: QVQLVESGGGLVQPGGSLRLSCAASGFTLDNYAIGWFRQAPGKEREGVSCISSSDGDTQYADSVKGRFTISRDNAKNTVYLQMNSLKPEDTAVYYCAVEKVYARSWFFHLCSELDFGSWGQGTQVTVSS

Where a chain is given by its changes, count along the chain named.

The first test deals with T1, SARS-CoV-2 prefusion-stabilized spike protein (SARS-CoV-2-PreS) (SARS-CoV-2, UniProt P0DTC2 14-1208). Nature of the test: ELISA.
As usually defined, the EC50 is the concentration needed to bring the measured effect to its halfway point. Read a low EC50 as an effect from little substance. B1: the EC50 is 0.18 nM.

Molecule B2 returned an EC50 of 0.16 nM. The EC50 values of the last two molecules are within 1.5-fold of each other.

Turning to B3, the midpoint of the response, the EC50, lay at 0.04 nM.

B4 gave an EC50 of 0.03 nM.

Take B5: the EC50 amounted to 0.13 nM.

For B6, it took 0.06 nM to reach a half-maximal effect (EC50). This EC50 is about 2.2-fold lower than that of the molecule before.

The molecule B7 yielded an EC50 of 0.14 nM. Against the preceding molecule, the EC50 is about 2.3-fold higher.

The molecule B8 showed an EC50 of 0.1 nM.

The next test has as its target SARS-CoV-2 Alpha B.1.1.7 spike on pseudovirus (SARS-CoV-2). Nature of the test: cell-based or functional assay.
As to B1, the “pseudovirus neutralization IC50” value is 6.6 nM.

B3: the “pseudovirus neutralization IC50” value amounted to 2.2 nM.

Consider B4, for which the “pseudovirus neutralization IC50” value worked out at 7 nM.

As to B5, the “pseudovirus neutralization IC50” value worked out at 1.5 nM.

On to B6, for which the “pseudovirus neutralization IC50” value came out at 0.85 nM.

For the molecule B7, the “pseudovirus neutralization IC50” value worked out at 26 nM.

As for B8, the “pseudovirus neutralization IC50” value came out at 22 nM.

The target of the next test is SARS-CoV-2 Beta B.1.351 spike on pseudovirus (SARS-CoV-2). Briefly: cell-based or functional assay.
In the case of B1, the “pseudovirus neutralization IC50” value was 4.1 nM.

Consider B3, for which the “pseudovirus neutralization IC50” value turned out to be 0.58 nM.

Turning to B4, the “pseudovirus neutralization IC50” value was 3.1 nM.

Take B5: the “pseudovirus neutralization IC50” value was 1.1 nM.

Take B6: the “pseudovirus neutralization IC50” value amounted to 0.66 nM.

On to B7, for which the “pseudovirus neutralization IC50” value stood at 54 nM.

As for B8, the “pseudovirus neutralization IC50” value was determined as 4.2 nM.

For another test, the target named is SARS-CoV-2 Gamma P.1 spike on pseudovirus (SARS-CoV-2). Briefly: cell-based or functional assay.
Take B1: the “pseudovirus neutralization IC50” value was determined as 6.4 nM.

B3: the “pseudovirus neutralization IC50” value amounted to 2.6 nM.

In the case of B4, the “pseudovirus neutralization IC50” value came out at 5.9 nM.

For the molecule B5, the “pseudovirus neutralization IC50” value was determined as 0.59 nM.

As for B6, the “pseudovirus neutralization IC50” value is 0.8 nM.

B7: the “pseudovirus neutralization IC50” value came to 3.1 nM.

On to B8, for which the “pseudovirus neutralization IC50” value was determined as 21 nM.

The next test concerns the target SARS-CoV-2 Omicron spike on pseudovirus (SARS-CoV-2). Briefly: cell-based or functional assay.
With B1, the “pseudovirus neutralization IC50” value came to 42 nM.

In the case of B2, the “pseudovirus neutralization IC50” value is 44 nM.

Take B4: the “pseudovirus neutralization IC50” value was found to be 309 nM.

As to B8, the “pseudovirus neutralization IC50” value was 52 nM.

The target of a further test is T1, SARS-CoV-2 prefusion-stabilized spike …. Nature of the test: Biacore, apparent affinity.
B1: the Kd is less than 0.2 nM.

Turning to B2, the Kd was less than 0.2 nM.

For the molecule B3, the Kd is less than 0.2 nM.

As for B4, the Kd is less than 0.2 nM.

Regarding B5, the Kd was less than 0.2 nM.

Turning to B6, the Kd was less than 0.2 nM.

On to B7, for which the Kd is less than 0.2 nM.

For the molecule B8, the Kd was less than 0.2 nM.

The next test deals with T2, Biotinylated CoV2 Spike ECD PreS-AVI protein (SARS-CoV-2, UniProt P0DTC2 14-1208). Briefly: Octet binning; competitor 7A9. A general note: BLI is a label-free optical method that tracks binding on a fibre tip over time.
B1 registered a binning response of 0.38.

Molecule B2 returned a binning response of 0.06.

Molecule B3 came in with a binning response of 0.26.

B4 showed a binning response of 0.3.

B5 registered a binning response of 0.32.

As for B6, the binning response is 0.36.

As for B7, the binning response turned out to be 0.37.

B8 had a binning response of 0.36.

Another test has as its target T2, Biotinylated CoV2 Spike ECD PreS-AVI …. Nature of the test: Octet binning; competitor 8E9.
As for B1, the binning response is 0.1.

Take B2: the binning response amounted to 0.37.

Turning to B3, the binning response amounted to 0.09.

Take B4: the binning response came out at 0.09.

For B5, the binning response is 0.08.

B6 displayed a binning response of 0.1.

As to B7, the binning response is 0.09.

As to B8, the binning response is 0.09.

The next test shares this target. Nature of the test: Octet binning; competitor 9B2.
B1 returned a binning response of 0.13.

Molecule B2 showed a binning response of 0.38.

Regarding B3, the binning response was found to be 0.11.

Molecule B4 registered a binning response of 0.11.

Turning to B5, the binning response stood at 0.09.

The molecule B6 came in with a binning response of 0.11.

Consider B7, for which the binning response is 0.11.

With B8, the binning response stood at 0.1.

The target is the same in the next test. Nature of the test: Octet binning; competitor 11F8.
In turn, B1 displayed a binning response of 0.13.

B2 had a binning response of 0.32.

B3 yielded a binning response of 0.11.

Regarding B4, the binning response was 0.12.

In turn, B5 showed a binning response of 0.09.

B6 registered a binning response of 0.12.

B7 registered a binning response of 0.09.

B8: the binning response was 0.11.

For a further test the target is unchanged. Briefly: Octet binning; competitor 13C8.
In turn, B1 registered a binning response of 0.11.

As to B2, the binning response worked out at 0.52.

Take B3: the binning response was found to be 0.12.

The molecule B4 had a binning response of 0.11.

In the case of B5, the binning response was 0.1.

Regarding B6, the binning response was 0.1.

Turning to B7, the binning response turned out to be 0.09.

B8 showed a binning response of 0.12.

Another test shares this target. Briefly: Octet binning; competitor 15H1.
B1 yielded a binning response of 0.14.

The molecule B2 returned a binning response of 0.37.

Consider B3, for which the binning response came to 0.11.

In the case of B4, the binning response came out at 0.12.

B5 came in with a binning response of 0.1.

The molecule B6 returned a binning response of 0.1.

Molecule B7 showed a binning response of 0.12.

Molecule B8 gave a binning response of 0.13.

A further test has the same target. Briefly: Octet binning; competitor 15H7.
With B1, the binning response was found to be 0.14.

In turn, B2 had a binning response of 0.34.

The molecule B3 registered a binning response of 0.11.

Consider B4, for which the binning response was found to be 0.11.

B5: the binning response stood at 0.09.

In turn, B6 gave a binning response of 0.1.

Consider B7, for which the binning response was found to be 0.1.

For the molecule B8, the binning response is 0.11.

For a further test the target is unchanged. Briefly: Octet binning; competitor 1A11.
B1 yielded a binning response of 0.1.

As to B2, the binning response was 0.32.

Regarding B3, the binning response came to 0.09.

As for B4, the binning response came to 0.08.

As for B5, the binning response came out at 0.08.

Molecule B6 displayed a binning response of 0.08.

B7: the binning response was 0.09.

In the case of B8, the binning response is 0.1.

Another test shares this target. Briefly: Octet binning; competitor Std-A.
Molecule B1 gave a binning response of 0.35.

B2 came in with a binning response of 0.34.

B3: the binning response turned out to be 0.28.

The molecule B4 displayed a binning response of 0.26.

Consider B5, for which the binning response came out at 0.34.

In turn, B6 had a binning response of 0.35.

B7 had a binning response of 0.39.

B8 gave a binning response of 0.32.

The target is the same in another test. Nature of the test: Octet binning; competitor Std-B.
With B1, the binning response was determined as 0.34.

The molecule B2 came in with a binning response of 0.3.

Turning to B3, the binning response is 0.24.

Take B4: the binning response worked out at 0.22.

Turning to B5, the binning response amounted to 0.31.

As to B6, the binning response is 0.35.

Turning to B7, the binning response was found to be 0.35.

B8: the binning response was 0.32.

The next test has the same target. Nature of the test: Octet binning; competitor Std-D.
In turn, B1 gave a binning response of 0.06.

The molecule B2 had a binning response of 0.46.

B3 displayed a binning response of 0.08.

B4 showed a binning response of 0.06.

As to B5, the binning response was 0.04.

With B6, the binning response came to 0.04.

With B7, the binning response is 0.03.

Take B8: the binning response turned out to be 0.05.

The record behind these values is patent US20250382355A1 (Merck Sharp & Dohme, published 2025).
